Consider 21 sequences from a protein production outcome set (Wang et al. 2014).

The series can be described thus: label from the status in PepcDB records.
Regarding “MHSHPSPKFSVITVTYNAEKVLEDTVQSVISQTYHHVEYIIIDGASKDGTLEIVNRYRNRINQLVSEPDKGLYDAMNKGIALATGDYLCFLNAGDSFHEDDTLQKMVHSINGNELPDILYGETALVDAERHFLRMRRLSAPETLNWKSFKQGMLVCHQAFFPRHTLIEPYDLQYRFSADFDWCIHIMKKARTFHNTHLILIDYLAEGMTTQNHKASLLERFRIMTRHYGLLSTLAHHAWFVVRSFSRNSATPSDAPFLEHHHHHH”, the protein production result is given as “failed”.

For “MHTDTERCVRAVQSKDARFDGWFFTAVLTTGIYCRPSCPVVPPKPGNMTFYPSAAACQQAGFRACKRCRPDTSPGSPEWNRRADLTARAMRLIADGVVDREGVPGLASRLGYSTRQVERQLLAELGAGPLALARAQRAQTARLLIETTPLPMADIAFAAGFSSIRTFNDTVREVYALSPSELRTRAPRNRRAATAPGALSLRLPFRAPLNPDNLFGHLAATAVPGVEEWRDGAYRRTLRLPYGHGIVALTPNPDHIACRLTLSDLRDLTVAISRCRRLLDLDADPTAIDDQLRADPLLAPLVDKAPGRRVPRTVDEAEFAVRAVLGQQVSTAAARTHAARLVTAHGDPVDDPEGGLTHLFPSTEALAAVDPETLAMPRTRRTTFTTLVAHLADGSVNPGVESDWAETRARLLALPGFGPWTADVIAMRALGDPDAFLPTDLGIRRAAAELGLPSTPAALTARAAAWRPWRAYAVQYLWATDDHPINFLPV”, the protein production entry is reported as “failed”.

For the sequence “MHTDVNALFAALWQDYIKMTPSAAKIHQLLGHGAPIINDHIALRTFNIAKVNLSVLAKHFTSIGYVDSGDYKFEQKKLIAKHFEHPDPKQPKVFISELLVEEFSPEVQKSIHGLIDQVDIAATTADNFIYSGRHWDVDKATYQALLAESEYAAWVAALGYRANHFTVSINDLPEFERIEDVNQALKQAGFVLNSSGGEVKGSPEVLLEQSSTMADKVVVNFTDGDVEIPSCFYEFARRYPMANGQLYTGFVAASADKIFESTNAMM”, the protein production entry is on record as “not failed”. With “MHTFTASSSLGASADALFTWHSRPGAFERLTPPWAPVRLQSFEGIEAGDRAVLRIGPGPLAVRWVAEHYGVEPGRQFCDRQVQGPFSHWEHTHRFTPADDDTGGATLTDRIEYEPPGGALGRQAAPWLEAELRRQFAYRHRITRRDLSLHQQYNPDDRSLTIAVSGASGLVGSSLVPFLTTGGHTVKRLTRSGPTGADEILWDPRTDRVEADKLEGIDAVIHLAGENVFGPWTPAKKQRIYSSRADGTRLLAEALAGLDDPPEVLVSSSAVGYYGDHGADRITEESAPRDAGFLGEVCEAWEAAAEPAAAAGIRTVQMRTGIVLTPAGGALRLMLPAFWLGLGGRVGGRHQYFPWITLDDVIGGIYHALWTDALEGPVNLTAPRPVTMQAYTDTLADVLHRPAFLNVPSSVVRTVGGEMADEMLLTSARAVPQRLQDTGYDFGASALEDGLRHVLGRTAD” the entry was “failed”; with “MHTISLKRILIYIVLLVTSFALLVGFTVNIVSQVAQYQESLHDQALSYSRIVAGNAASSLVFNDNANEKQRLSSLENTSFIQHVHVYKMDETSNELTFFSSYNKKGLPPIPARFAKLDKLTTPQTNDNYIEVSQPVVLDDEVIGYVYLRGSLEQARLFMWRSIGIASVVFVLTLLLCWLITLRLRKTIVTPLDSVVDVISQVARDKNYSLRLAPSKLVEFDMMAHAFNTMLDRVQQHISRQRRAEEEASQLNTELERQVTQRTQALKESNSELLKTLEQLHQYQGQLVESEKMASLGDMVAGIAHEVNTPIGLSVTASTLLQDKLTIMQEKFDEKRISTSEFERFLSDCDENLQIIYRNLGRAADLVTSFKQVAVDQSSEIDRDIHIPSFMNDVLISVKPRRLDPEKFPIRISCPEGLTVRAKAGPLNQVLINLIVNSMIHAFEGYSSGRVDISFTMVGDDKLEMVYTDNGKGVPSDINRKIFDPFVTTKRGSGGSGLGLHLVYNLVTQVLGGNIHFFSEEKNGVEFIVRFPVTLVSNA”, “failed”; with “MHTPTAVLRPADFLAPIVAALISVLVNYGGTFVLVFQAAELAGLSAAQTTSWVWAVSIGVGVTGIALSWRYREPIITAWSTPGVAFLATVMPFTPYGEVIGAYLAAALGFVVLGLSGAFEKLVRMIPAGIAAGLLAGILLQFGINAFGGASADPLLVIALLVSYALLKRYTSRFAVVGILVIGLGLLAAQQRVDFAALHLSLAAPVFEMPRFSLHAMLGVALPLFVITLTGQYMPGMLVLRNDGFKTSANPILVATGLGSLVMAPFGAHTFNVAAITAAICTGRDAHEDPRKRYIAGLACGVFYILVGLFGVTLATLFMVLPKTFITTLAGLALLGTIGGSLASAMADARTRETALITFLATAANVTLLGVGGAFWGLVAGLAAHGLIHFRQPEPAAARPALLSPTSQDTR”, “failed”. As to “MHTSVQHAKTCLAVTSVSPIYVFGKTTFVSELIEQAGGKNCVETIQSAYPTVDVEYILRANPDVFIFNSTDQQKLFFETYPLLKQCKGYITNQLFVIDDSIMSRPGIRLPILKDSLVSILSKLEHHHHHH”, the protein production entry is “failed”. As to “MHVLNILWVVFGIGLMLVLNLKFKINSMVALLVAALSVGMLAGMDLMSLLHTMKAGFGNTLGELAIIVVFGAVIGKLMVDSGAAHQIAHTLLARLGLRYVQLSVIIIGLIFGLAMFYEVAFIMLAPLVIVIAAEAKIPFLKLAIPAVAAATTAHSLFPPQPGPVALVNAYGADMGMVYIYGVLVTIPSVICAGLILPKFLGNLERPTPSFLKADQPVDMNNLPSFGVSILVPLIPAIIMISTTIANIWLVKDTPAWEVVNFIGSSPIAMFIAMVVAFVLFGTARGHDMQWVMNAFESAVKSIAMVILIIGAGGVLKQTIIDTGIGDTIGMLMSHGNISPYIMAWLITVLIRLATGQGVVSAMTAAGIISAAILDPATGQLVGVNPALLVLATAAGSNTLTHINDASFWLFKGYFDLSVKDTLKTWGLLELVNSVVGLIIVLIISMVA”, the protein production entry is “failed”. On to “MHYQPKQDLLNDRIILVTGASDGIGREAAMTYARYGATVILLGRNEEKLRQVASHINEETGRQPQWFILDLLTCTSENCQQLAQRIAVNYPRLDGVLHNAGLLGDVCPMSEQNPQVWQDVMQVNVNATFMLTQALLPLLLKSDAGSLVFTSSSVGRQGRANWGAYAASKFATEGMMQVLADEYQQRLRVNCINPGGTRTAMRASAFPTEDPQKLKTPADIMPLYLWLMGDDSRRKTGMTFDAQPGRKPGISQ”, for which the protein production entry was “failed”. The result for “MIAAPTQLAIMPFPNIDPIALSIGPLAIHWYGIAYVAGIMLGWFYARRLARTDRLWPNDTSPISAQHLDDFILWAAGGIVLGGRIGYILFYDMAAVAANPIRAIEIWNGGMSFHGGLIGTTIAMILFARRNGIPVWSMFDIIAAVAPIGLLFGRIANFINGELWGRIADVPWAVVFPTGGPFARHPSQLYEAGLEGLVLVVLLAIAIYVFKALKTPGTVTGIFVCGYALSRIFVEFFREPDAQIGYLAGNWLTMGMVLSTPMFLLGLWAVLRARSATKSA” reads “not failed”; that for “MIAITLLVVIDQVALSQTFPILTIIYALATILPAWGVLVRRLHDIGRSGWWMLISCVPLVGGIILFVFTVMDSQQGDNQFGASPKAAL”, “failed”; that for “MIALAASSLGNTPIASFNRHFRFRLHPRNPLIQAAVSPSSSSSSPTASSGFDLSSLESAINKKDSNGVKEALDKLSEEGWAKKWSSQPYLSRRTTSLRELTTLGIKNAETLAIPSVRNDAAFLFTVVGSTGFIAVLAGQLPGDWGFFVPYLVGSISLVVLAVGSVSPGLLQAAISGFSTFFPDYQERIAAHEAAHFLGTLEKFKSFDSKVAYLIGLPILGYSLDIGKEHVNLIDERLAKLIYSGKLDSKELDRLAAVAMAGLAAEGLKYDKVIGQSADLFSLQRFINRSQPKISNEQQQNLTRWAVLYSASLLKNNKTIHEALMAAMSKNASVLECIQTIETAS”, “failed”. In the case of “MIAQQFNRARHILRHNLVRPFYQPKFYLESGKLAGFEALLRWYDEDNQIQLPKLIINAFEDYSLASRLSEKMQLNIFKDMASWINQGLQLVPVSINAAPVEFLKDNYAELLLERLNQFEIPYHLIEIEITEHLLDDQGKNFISRALAKLKQNGIRIALDDFGTGHSSLTRLANLPVDCLKIDCDFVQRMEQEKFISALVQSVILMSNNLGIDVVAEGIESQEQLELLKQQGCEVGQGFLFSQALAPENARALLS”, the protein production result was “failed”.

For “MICLEKVEDIPRLQELFAQILIVHHQARSDVLKVKGSKFTDKELEGVIGDANKPVFVYEDEAGTILCHLFLIIKEVSENDGPQKPIKTLFIDDLCVEEKARGQKLGEKLYQFALDYATEQECYNATLHVWNDNQGTLDFYEHLGVKPRYTEMKTVLKLEHHHHHH”, the protein production result is “failed”. For the sequence “MIDAQMSERFPARINILAVNSPGSLAEITQVISANDANIQNLSFIRTAPDFTEIMIDLEVWDLKHLNRIFSQLKKAGSVSTVRRGHGLEHHHHHH”, the protein production result is on record as “failed”.

“MIDCAIIGGGPAGLSAGLYATRGGVKNAVLFEKGMPGGQITGSSEIENYPGVKEVVSGLDFMQPWQEQCFRFGLKHEMTAVQRVSKKDSHFVILAEDGKTFEAKSVIIATGGSPKRTGIKGESEYWGKGVSTCATCDGFFYKNKEVAVLGGGDTAVEEAIYLANICKKVYLIHRRDGFRCAPITLEHAKNNDKIEFLTPYVVEEIKGDASGVSSLSIKNTATNEKRELVVPGFFIFVGYDVNNAVLKQEDNSMLCKCDEYGSIVVDFSMKTNVQGLFAAGDIRIFAPKQVVCAASDGATAALSVISYLEHH”: the protein production result was “failed”. With “MIDEKFLIESNELVESSKIVMVGTNGENGYPNIKAMMRLKHDGLKKFWLSTNTSTRMVERLKKNNKICLYFVDDNKFAGLMLVGTIEILHDRASKEMLWTDGCEIYYPLGIDDPDYTALCFTAEWGNYYRHLKNITFKIDEIYNY” the entry was “not failed”. Regarding “MIDIHSHIVFDVDDGPKTLEESLSLIEESYRQGVRIIVSTSHRRKGMFETPEDIIFKNFSIVKHEAEKRFEHLQILYGGELYYTSDMLEKLKLKQIPTLNNTKFALIEFSMQTSWKDIHTALSNVLMLGITPVVAHIERYNALENQKERVKEIINMGCYTQINSSHILKQKLFNDKHKRFKKRARYFLEENLVHFVASDMHNLDVRPPFLAEAYKIICRDFGKERANQLFIENAQSILKNHYI”, the protein production result was “failed”.

Take “MIDLNEALAKDRWIGRLASHLDGFEALLDGQGYAKTTVQQKIKLLAGFSAWVERQDVPLSLLGEEDADLFLTELGLRPRRGDAWTIRQLVRYLRDTGGVPVLLPEVDTSAKGKLIDAFGEFLRKERGLSASTLTNYLPIIRGFLDEQFGGKDPGFDHLRVGDVHRFIVRRAQAGSLGRAKLAVTALRSFLRFLQQRGLLATDLAVAVPGIAGWRLAHLPKALRAEQVERLLASCDRRTPAGRRDYAVLMLLARLGLRGGEVSALTLDDLDWDCGEIVVHGKGQRLARLPLPADVGAALVDYLRQDRPACSTRRVFIRTRAPRRGFVSQSTICCIVRRALKRAGLTPAFKGAHLLRHSLATDLLRRGASLVEIGQLLRHSQPNTTQIYAKVDIAALRAIALPWPGVAS”: the protein production result is “failed”.

With “MIDSQFQFTVLTPTYNRAVTLHRVFQSLQRQTCRDFEWVVVDDGSTDNTHEVVRAWQAQADFPIRYVWQHNQHKKTAFNRGVREARGMLVVGLDSDDEIPPDALAILKDAWEGIPADRRETYVAVTGLCARPDGSIVGDRFPQDVFDSTAVDMYFRYRVQGEKFGAMRADVLRRFPFPEDVAGFVPESLVWWAISRAGYLSRFINRVVRVYHDTPGGLSQGGVSLSSNIQGLYLLAWDMLQHHLDWFRYRPREFIMAAARYTRFRLHLDNSGLPTAVQAYRLTQPSARLLVLLMWPLGYLLYRRDRRRGVA”, the protein production entry is “failed”. On to “MIDTFERTGPLMEASSYPAWAQQLINDCSPAKARVVEHELYQQMRDAKLSPQIMRQYLIGGWPVVEQFAVYMAKNLTKTRFGRHPGEDMARRWLMRNIRVELNHADYWVNWCAAHDVTLEDLHDQRVAPELHALSHWCWQTSSSDSLAVAMAATNYAIEGATGEWSAVVCSTGVYAEAFAEETRKKSMKWLKMHAQYDDAHPWEALEIICTLVGNKPSLQLQAELRQAVTKSYDYMYLFLERCIQLDKVKSPRGRVAALEM”, for which the protein production result is “not failed”.
